Measurements from patent publication US20220064272A1.

Key:
[1] = biological target: TauC3 (C-terminally truncated tau fragment ending at aspartate 421 of htau40) (human) (UniProt P10636); assay: binding ELISA on coated TauC3, OD650; left table (HC variants); isotype control
[2] = biological target: TauC3 (C-terminally truncated tau fragment ending at aspartate 421 of htau40) (human) (UniProt P10636); assay: binding ELISA on coated TauC3, OD650; right table (HM variants); isotype control

TauC3 (C-terminally truncated tau fragment ending at aspartate 421 of htau40) (human), sequence (P10636 other isoform, or with tags, fused parts or gaps): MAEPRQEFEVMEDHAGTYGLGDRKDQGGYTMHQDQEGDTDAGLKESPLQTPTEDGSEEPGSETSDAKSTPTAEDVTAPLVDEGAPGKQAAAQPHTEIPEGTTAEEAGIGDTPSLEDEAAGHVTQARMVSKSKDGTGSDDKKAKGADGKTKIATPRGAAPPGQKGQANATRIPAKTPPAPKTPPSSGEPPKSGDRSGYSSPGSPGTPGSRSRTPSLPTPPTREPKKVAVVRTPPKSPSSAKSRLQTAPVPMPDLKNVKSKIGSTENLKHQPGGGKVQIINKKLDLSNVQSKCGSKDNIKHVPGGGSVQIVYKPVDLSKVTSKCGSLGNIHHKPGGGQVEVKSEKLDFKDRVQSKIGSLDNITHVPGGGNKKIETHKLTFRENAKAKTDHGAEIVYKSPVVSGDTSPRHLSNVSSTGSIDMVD

## isotype control antibody
[1]
  EC50: 15.5 nM
[2]
  EC50: 15.5 nM
